Results published in patent US20240190996A1 (Regeneron, published 2024).

Key:
[1] = molecular target: T1, human coagulation factor XI (hFXI), plasma-derived (ERL) (human, UniProt P03951 19-625); assay: cell-based or functional assay
[2] = molecular target: T2, human activated factor XI (hFXIa), plasma-derived (ERL) (human, UniProt P03951 19-387; P03951 388-625); assay: cell-based or functional assay
[3] = molecular target: T1, human coagulation factor XI (hFXI), …; assay: SPR (Biacore), mAb captured on anti-hFc, antigen injected, 25C
Description: (§1) Then, all FXI solutions were injected on Biacore 8K at 30 μL/min for 180 seconds and dissociation was monitored for 10 minutes.

[4] = molecular target: T1, human coagulation factor XI (hFXI), …; assay: SPR (Biacore), mAb captured on anti-hFc, antigen injected, 37C
Description: as §1

hFXI.mmh (REGN3848) [5] = molecular target: T3, hFXI.mmh (REGN3848) (human, UniProt P03951 19-625); assay: SPR (Biacore), mAb captured on anti-hFc, antigen injected, 25C
T3 construct: Human FXI with a C-terminal myc-myc-hexahistidine tag; also called human FXI.mmh; recombinant human FXI
T3 sequence (P03951 other isoform, or with tags, fused parts or gaps limits assumed): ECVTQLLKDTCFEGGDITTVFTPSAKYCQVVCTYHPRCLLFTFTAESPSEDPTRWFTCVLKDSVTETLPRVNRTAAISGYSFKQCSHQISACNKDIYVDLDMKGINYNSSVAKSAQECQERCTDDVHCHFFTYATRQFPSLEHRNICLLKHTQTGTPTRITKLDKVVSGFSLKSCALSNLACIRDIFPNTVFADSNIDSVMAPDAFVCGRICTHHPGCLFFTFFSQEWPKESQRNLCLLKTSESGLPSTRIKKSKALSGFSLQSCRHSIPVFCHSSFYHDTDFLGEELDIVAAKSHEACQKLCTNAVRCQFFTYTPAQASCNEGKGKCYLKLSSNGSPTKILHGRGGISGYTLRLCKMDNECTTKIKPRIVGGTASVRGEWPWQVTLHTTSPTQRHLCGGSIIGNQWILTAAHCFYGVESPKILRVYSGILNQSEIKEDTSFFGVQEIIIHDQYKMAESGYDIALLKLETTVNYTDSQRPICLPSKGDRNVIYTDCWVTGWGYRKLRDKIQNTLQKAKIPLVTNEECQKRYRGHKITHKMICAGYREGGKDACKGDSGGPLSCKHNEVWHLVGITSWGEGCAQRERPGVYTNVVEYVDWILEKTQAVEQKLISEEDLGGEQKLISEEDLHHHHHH
Description: as §1

hFXI.mmh (REGN3848) [6] = molecular target: T3, hFXI.mmh (REGN3848); assay: SPR (Biacore), mAb captured on anti-hFc, antigen injected, 37C
Description: as §1

mfFXI.mmh (REGN3883) [7] = molecular target: T4, mfFXI.mmh (REGN3883) (cynomolgus monkey (Macaca fascicularis), UniProt A0A2K5VVW4 19-624); assay: SPR (Biacore), mAb captured on anti-hFc, antigen injected, 25C
T4 construct: also called monkey FXI.mmh; recombinant cynomolgus monkey FXI; not shown: mmH tag
T4 sequence (A0A2K5VVW4 entry or part of it): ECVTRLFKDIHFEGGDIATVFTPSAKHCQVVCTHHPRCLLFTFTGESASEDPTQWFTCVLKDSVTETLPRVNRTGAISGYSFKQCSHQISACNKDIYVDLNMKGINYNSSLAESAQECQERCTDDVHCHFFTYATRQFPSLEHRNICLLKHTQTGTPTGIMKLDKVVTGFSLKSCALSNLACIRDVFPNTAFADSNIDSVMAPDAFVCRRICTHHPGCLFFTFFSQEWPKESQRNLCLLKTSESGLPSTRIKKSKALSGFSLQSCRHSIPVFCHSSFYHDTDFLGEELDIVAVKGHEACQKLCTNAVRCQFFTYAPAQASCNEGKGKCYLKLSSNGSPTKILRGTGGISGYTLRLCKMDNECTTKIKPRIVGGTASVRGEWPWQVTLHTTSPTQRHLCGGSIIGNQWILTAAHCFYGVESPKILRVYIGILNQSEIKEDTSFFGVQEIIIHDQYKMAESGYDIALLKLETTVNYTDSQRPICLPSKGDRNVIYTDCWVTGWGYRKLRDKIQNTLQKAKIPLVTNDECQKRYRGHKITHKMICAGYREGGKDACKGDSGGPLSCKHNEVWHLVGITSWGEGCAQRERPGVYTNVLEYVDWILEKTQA

mfFXI.mmh (REGN3883) [8] = molecular target: T4, mfFXI.mmh (REGN3883); assay: SPR (Biacore), mAb captured on anti-hFc, antigen injected, 37C
Description: as §1

[9] = molecular target: T2, human activated factor XI (hFXIa), …; assay: SPR (Biacore), mAb captured on anti-hFc, antigen injected, 25C
Description: as §1

[10] = molecular target: T2, human activated factor XI (hFXIa), …; assay: SPR (Biacore), mAb captured on anti-hFc, antigen injected, 37C
Description: as §1

[11] = molecular target: T1, human coagulation factor XI (hFXI), …; assay: SPR (Biacore), mAb captured on anti-hFc, antigen injected, 25C; 25 C
Description: as §1

[12] = molecular target: T1, human coagulation factor XI (hFXI), …; assay: SPR (Biacore), REGN7508 captured on anti-hFcG, antigen injected, 25C, pH 7.4
Description: (§2) Each concentration was tested in duplicate.
(§3) Specific binding signals were obtained by a double referencing procedure and plotted as SPR sensorgrams. […] The kinetic parameters were obtained by globally fitting these specific binding signals to a 1:1 binding model with mass transport limitation. The equilibrium dissociation constant (KD) was calculated from the ratio of the dissociation rate constant to the association rate constant (KD=kd/ka).

[13] = molecular target: T2, human activated factor XI (hFXIa), …; assay: as above
Description: as §2, §3

hFXI.mmh (REGN3848) [14] = molecular target: T3, hFXI.mmh (REGN3848); assay: as above
Description: as §2, §3

mfFXI.mmh (REGN3883) [15] = molecular target: T4, mfFXI.mmh (REGN3883); assay: as above
Description: as §2, §3

mFXI.mmH = molecular target: T5, mFXI.mmH (mouse, UniProt Q91Y47 19-624); assay: SPR (Biacore), REGN7508 captured on anti-hFcG, mFXI.mmH injected, 25C, pH 7.4
T5 construct: also called recombinant mouse FXI; not shown: mmH tag
T5 sequence (Q91Y47 19-624): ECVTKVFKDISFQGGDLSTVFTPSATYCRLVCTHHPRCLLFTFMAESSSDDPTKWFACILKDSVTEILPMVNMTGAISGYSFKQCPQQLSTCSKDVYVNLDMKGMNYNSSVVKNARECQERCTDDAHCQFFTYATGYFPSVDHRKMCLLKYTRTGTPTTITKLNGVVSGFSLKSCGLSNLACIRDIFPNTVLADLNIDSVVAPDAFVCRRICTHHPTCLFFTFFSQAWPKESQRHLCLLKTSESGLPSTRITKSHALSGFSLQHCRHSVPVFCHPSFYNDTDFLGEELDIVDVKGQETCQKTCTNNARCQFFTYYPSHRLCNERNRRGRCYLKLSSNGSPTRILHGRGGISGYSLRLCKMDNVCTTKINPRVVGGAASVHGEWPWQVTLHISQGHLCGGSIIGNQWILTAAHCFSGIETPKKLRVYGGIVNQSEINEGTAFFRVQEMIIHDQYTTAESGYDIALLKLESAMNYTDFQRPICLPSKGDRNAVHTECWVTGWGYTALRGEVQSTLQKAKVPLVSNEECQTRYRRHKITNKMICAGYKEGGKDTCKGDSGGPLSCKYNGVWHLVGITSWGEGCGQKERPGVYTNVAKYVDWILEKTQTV

rbFXI.mmH = molecular target: T6, rbFXI.mmH (rabbit, UniProt G1SSQ6 19-623); assay: SPR (Biacore), REGN7508 captured on anti-hFcG, rbFXI.mmH injected, 25C, pH 7.4
T6 construct: also called recombinant rabbit FXI; not shown: mmH tag
T6 sequence (G1SSQ6 entry or part of it): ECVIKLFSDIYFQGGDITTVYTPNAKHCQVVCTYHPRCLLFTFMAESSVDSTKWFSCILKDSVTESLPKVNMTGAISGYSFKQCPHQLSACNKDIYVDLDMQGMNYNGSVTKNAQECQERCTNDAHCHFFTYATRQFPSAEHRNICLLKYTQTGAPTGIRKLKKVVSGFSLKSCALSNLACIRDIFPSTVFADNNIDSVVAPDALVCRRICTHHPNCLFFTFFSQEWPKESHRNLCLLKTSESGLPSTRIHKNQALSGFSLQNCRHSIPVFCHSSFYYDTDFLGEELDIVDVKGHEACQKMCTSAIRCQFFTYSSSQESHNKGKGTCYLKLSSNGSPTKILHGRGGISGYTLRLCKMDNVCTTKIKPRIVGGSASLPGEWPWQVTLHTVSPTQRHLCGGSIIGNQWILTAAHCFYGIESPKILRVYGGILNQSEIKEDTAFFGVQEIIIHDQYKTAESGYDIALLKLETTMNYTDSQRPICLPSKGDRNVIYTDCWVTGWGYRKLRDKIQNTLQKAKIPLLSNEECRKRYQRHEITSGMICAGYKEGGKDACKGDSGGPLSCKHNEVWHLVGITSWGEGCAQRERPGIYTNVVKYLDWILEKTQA

T1 sequence (P03951 19-625): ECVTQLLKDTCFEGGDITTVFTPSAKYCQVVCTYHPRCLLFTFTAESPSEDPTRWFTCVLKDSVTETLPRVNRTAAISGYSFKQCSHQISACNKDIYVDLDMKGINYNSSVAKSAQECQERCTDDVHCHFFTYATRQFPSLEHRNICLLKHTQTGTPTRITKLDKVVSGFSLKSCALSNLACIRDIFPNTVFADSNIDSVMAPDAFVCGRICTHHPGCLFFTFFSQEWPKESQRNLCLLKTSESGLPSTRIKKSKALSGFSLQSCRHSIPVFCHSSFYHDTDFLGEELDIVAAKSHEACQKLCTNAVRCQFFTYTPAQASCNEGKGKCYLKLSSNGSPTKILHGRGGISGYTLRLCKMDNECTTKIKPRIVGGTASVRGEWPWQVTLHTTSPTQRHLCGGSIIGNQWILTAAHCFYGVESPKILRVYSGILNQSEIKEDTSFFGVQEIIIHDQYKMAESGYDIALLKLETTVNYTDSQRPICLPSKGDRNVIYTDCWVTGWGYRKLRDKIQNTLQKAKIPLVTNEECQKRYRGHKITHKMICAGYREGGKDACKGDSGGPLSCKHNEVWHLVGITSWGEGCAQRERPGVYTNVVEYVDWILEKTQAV
T2 sequence (P03951 19-387 limits assumed, chain 1 of 2): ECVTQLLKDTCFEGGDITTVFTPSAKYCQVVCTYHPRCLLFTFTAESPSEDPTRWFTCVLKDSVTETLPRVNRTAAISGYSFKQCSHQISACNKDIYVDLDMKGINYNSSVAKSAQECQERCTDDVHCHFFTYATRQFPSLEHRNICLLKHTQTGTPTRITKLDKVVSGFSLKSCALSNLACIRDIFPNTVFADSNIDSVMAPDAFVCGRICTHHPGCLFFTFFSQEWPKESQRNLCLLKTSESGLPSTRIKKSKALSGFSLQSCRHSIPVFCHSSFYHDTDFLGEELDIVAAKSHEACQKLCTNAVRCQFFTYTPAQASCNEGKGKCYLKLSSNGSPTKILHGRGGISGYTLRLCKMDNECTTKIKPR
T2 sequence (P03951 388-625 limits assumed, chain 2 of 2): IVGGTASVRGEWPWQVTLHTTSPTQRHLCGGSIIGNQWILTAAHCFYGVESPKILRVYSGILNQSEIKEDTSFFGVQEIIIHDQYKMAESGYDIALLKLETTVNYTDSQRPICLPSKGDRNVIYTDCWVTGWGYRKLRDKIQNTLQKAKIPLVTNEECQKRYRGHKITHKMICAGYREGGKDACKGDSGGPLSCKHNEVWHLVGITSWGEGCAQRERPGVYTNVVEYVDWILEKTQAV

B1: REGN9932 (antibody, human IgG4 S228P, kappa, V domains shown)
VH: QVQLVESGGGVVQPGRSLRLSCAASGFTFSNYEMHWVRQTPGKGLEWVALIWYDGSNKYSGDSVKGRFTISRDNSKSTLYLQMNSLTAEDTAVYYCTGITGTEDAFDVWGQGTMVTVSS
VL: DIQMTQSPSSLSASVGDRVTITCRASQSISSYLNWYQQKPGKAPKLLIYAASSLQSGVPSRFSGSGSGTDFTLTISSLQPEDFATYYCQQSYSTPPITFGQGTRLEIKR
notes: also called anti-FXI mAb [REGN9932]
[1]
  IC50 [M], FXI, 0.13% plasma (chromogenic FXa generation, BIOPHEN Factor XIa kit): 1.9e-10 M
[2]
  IC50 [M], FXIa, 0.13% plasma (chromogenic FXa generation, BIOPHEN Factor XIa kit): > 1e-08 M
[3]
  Kd: ≤ 119 pM
  koff: ≤ 1e-05 s⁻¹
  kon: 83800 M⁻¹ s⁻¹
  t½: ≥ 19.2 h
[4]
  Kd: 36.5 pM
  koff: ≤ 1e-05 s⁻¹
  kon: 274000 M⁻¹ s⁻¹
  t½: ≥ 19.2 h
hFXI.mmh (REGN3848) [5]
  Kd: ≤ 116 pM
  koff: ≤ 1e-05 s⁻¹
  kon: 86200 M⁻¹ s⁻¹
  t½: ≥ 19.2 h
hFXI.mmh (REGN3848) [6]
  Kd: 387 pM
  koff: 8.77e-05 s⁻¹
  kon: 226000 M⁻¹ s⁻¹
  t½: 2.19 h
mfFXI.mmh (REGN3883) [7]
  Kd: ≤ 64.4 pM
  koff: ≤ 1e-05 s⁻¹
  kon: 155000 M⁻¹ s⁻¹
  t½: ≥ 19.2 h
mfFXI.mmh (REGN3883) [8]
  Kd: 268 pM
  koff: 8.6e-05 s⁻¹
  kon: 321000 M⁻¹ s⁻¹
  t½: 2.24 h

B2: REGN7508 (antibody, human IgG4 S228P, kappa, V domains shown)
VH: QVQLVESGGGLVKPGGSLRLSCAASGFTFSDYSMNWIRQAPGKGLEWISYISFSGNSIYYADSVKGRFTISRDNAKNSLYLQMNSLRVEDTAIYYCTSRDWGYAFDIWGQGTMVTVSS
VL: DIQMTQSPSFLSASLGDRVTITCQASQDISNYLNWYQVKPGKAPKLLIYDASNLETGVPSRFSGSGSGTDFTFTISSLQPEDIATYFCQQYDNLPYIFGQGTKLEIKR
notes: also called Subject mAb [REGN7508]; subject anti-FXI mAb
[3]
  koff: ≤ 1e-05 s⁻¹
  kon: 2.2e+06 M⁻¹ s⁻¹
  t½: ≥ 19.2 h
[4]
  Kd: ≤ 3.09 pM
  koff: ≤ 1e-05 s⁻¹
  kon: 3.24e+06 M⁻¹ s⁻¹
  t½: ≥ 19.2 h
[9]
  Kd: ≤ 31.1 pM
  koff: ≤ 1e-05 s⁻¹
  kon: 321000 M⁻¹ s⁻¹
  t½: ≥ 19.2 h
[10]
  Kd: 256 pM
  koff: 0.000121 s⁻¹
  kon: 475000 M⁻¹ s⁻¹
  t½: 1.58 h
hFXI.mmh (REGN3848) [5]
  Kd: ≤ 5.34 pM
  koff: ≤ 1e-05 s⁻¹
  kon: 1.87e+06 M⁻¹ s⁻¹
  t½: ≥ 19.2 h
hFXI.mmh (REGN3848) [6]
  Kd: 32.6 pM
  koff: 8.86e-05 s⁻¹
  kon: 2.71e+06 M⁻¹ s⁻¹
  t½: 2.17 h
mfFXI.mmh (REGN3883) [7]
  Kd: ≤ 4.81 pM
  koff: ≤ 1e-05 s⁻¹
  kon: 2.08e+06 M⁻¹ s⁻¹
  t½: ≥ 19.2 h
mfFXI.mmh (REGN3883) [8]
  Kd: 43.5 pM
  koff: 0.000111 s⁻¹
  kon: 2.56e+06 M⁻¹ s⁻¹
  t½: 1.73 h
[11]
  Kd: ≤ 4.54 pM
[12]
  Kd: 3 pM
  koff: 9.36e-06 s⁻¹
  kon: 3.12e+06 M⁻¹ s⁻¹
  t1/2: 20.6 h
[13]
  Kd: 10.2 pM
  koff: 3.61e-05 s⁻¹
  kon: 3.55e+06 M⁻¹ s⁻¹
  t1/2: 5.33 h
hFXI.mmh (REGN3848) [14]
  Kd: 8.07 pM
  koff: 2.7e-05 s⁻¹
  kon: 3.34e+06 M⁻¹ s⁻¹
  t1/2: 7.13 h
mfFXI.mmh (REGN3883) [15]
  Kd: 3.73 pM
  koff: 9.62e-06 s⁻¹
  kon: 2.58e+06 M⁻¹ s⁻¹
  t1/2: 20 h
mFXI.mmH
  binding result: no binding (tested: 50 nM)
rbFXI.mmH
  binding result: no binding (tested: 250 nM)
